Test results taken from paper PMC8934638, “H3K36 methylation and DNA-binding both promote Ioc4 recruitment and Isw1b remodeler function”.

Key:
Test in all cases: EMSA; EMSA; 15 fmol NCP (30 fmol unmodified NCP) per reaction; 5% native PAGE (37.5:1) in 0.4x TBE, 2% glycerol; binding buffer, pH and temperature not given (as in cited work)
Ioc4 2KE = molecular target: T1, Ioc4 2KE (Saccharomyces cerevisiae, UniProt Q04213 1-475, K149E;K150E); conditions: protein: recombinant; tags: N-terminal 6xHis-MBP; label: Cy5 on sense strand; blunt
T1 sequence: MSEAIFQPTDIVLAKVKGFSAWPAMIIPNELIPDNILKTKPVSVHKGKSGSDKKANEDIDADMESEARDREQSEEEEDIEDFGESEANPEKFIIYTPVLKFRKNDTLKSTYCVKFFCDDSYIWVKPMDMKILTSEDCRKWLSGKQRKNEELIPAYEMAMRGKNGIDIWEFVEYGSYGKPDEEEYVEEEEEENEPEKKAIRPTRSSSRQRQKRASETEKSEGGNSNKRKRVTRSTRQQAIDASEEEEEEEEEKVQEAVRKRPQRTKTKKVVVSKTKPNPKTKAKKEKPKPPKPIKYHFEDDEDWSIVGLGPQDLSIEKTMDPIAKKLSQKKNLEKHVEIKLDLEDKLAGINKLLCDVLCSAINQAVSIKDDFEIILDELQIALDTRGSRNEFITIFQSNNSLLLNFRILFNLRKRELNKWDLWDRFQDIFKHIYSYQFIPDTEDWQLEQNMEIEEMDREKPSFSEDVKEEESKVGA

Ioc4 PWWP 2KE = molecular target: T2, Ioc4 PWWP 2KE (Saccharomyces cerevisiae, UniProt Q04213 1-178, K149E;K150E); conditions: protein: recombinant; tags: N-terminal 6xHis; label: Cy5 on sense strand; blunt
T2 sequence: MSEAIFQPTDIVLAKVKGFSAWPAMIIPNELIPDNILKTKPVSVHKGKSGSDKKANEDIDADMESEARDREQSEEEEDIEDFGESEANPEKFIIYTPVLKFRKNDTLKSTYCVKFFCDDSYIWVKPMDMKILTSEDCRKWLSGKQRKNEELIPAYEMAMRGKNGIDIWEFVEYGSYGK

Ioc4 dPWWP = molecular target: T3, Ioc4 dPWWP (Saccharomyces cerevisiae, UniProt Q04213 179-475, del1-178); conditions: protein: recombinant; tags: N-terminal 6xHis-MBP; label: Cy5 on sense strand; blunt
T3 sequence: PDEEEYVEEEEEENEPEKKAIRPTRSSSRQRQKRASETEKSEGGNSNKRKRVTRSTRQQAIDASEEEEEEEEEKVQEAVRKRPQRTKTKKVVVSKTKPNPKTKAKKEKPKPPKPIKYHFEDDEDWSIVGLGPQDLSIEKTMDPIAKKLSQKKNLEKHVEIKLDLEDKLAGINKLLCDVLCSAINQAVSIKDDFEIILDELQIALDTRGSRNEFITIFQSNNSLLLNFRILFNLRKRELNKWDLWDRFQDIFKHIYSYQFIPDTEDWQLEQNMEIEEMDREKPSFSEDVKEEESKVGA

Ioc4 PWWP 2KA = molecular target: T4, Ioc4 PWWP 2KA (Saccharomyces cerevisiae, UniProt Q04213 1-178, K149A;K150A); conditions: protein: recombinant; label: Cy5 on sense strand; blunt
T4 sequence: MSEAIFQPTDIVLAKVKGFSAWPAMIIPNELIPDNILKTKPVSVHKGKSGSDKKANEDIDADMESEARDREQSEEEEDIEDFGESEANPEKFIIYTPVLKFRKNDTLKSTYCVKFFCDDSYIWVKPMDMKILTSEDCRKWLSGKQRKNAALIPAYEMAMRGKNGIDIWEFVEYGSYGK

B1: dsDNA 30 bp (601-derived EMSA probe) (dsDNA)
DNA 1: GGCAAGGTCGCTGTTCAATACATGCACAGG
DNA 2: CCTGTGCATGTATTGAACAGCGACCTTGCC
Ioc4 2KE
  Kd: 76 nM
Ioc4 PWWP 2KE
  binding result: no binding
Ioc4 dPWWP
  Kd: 121 nM
Ioc4 PWWP 2KA
  binding result: no binding
